Assay results taken from the supplement of paper PMC9112550, “Optimization of the antimicrobial peptide Bac7 by deep mutational scanning” (BMC Biology, 2022).

What follows are sequences tested on Escherichia coli TOP10 (assay: shrunken log2 fold change of peptide-encoding DNA abundance (4.5 h post-induction vs induction); higher = less antimicrobial activity (less host growth inhibition)). Conditions: time post-induction: 4.5 h; library: site-saturation at positions 5, 18, 19, 20.
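Also: peptides expressed intracellularly from a pBAD plasmid library in pooled LB shake-flask culture, induced with 0.3% L-arabinose, DNA abundance read by NGS, three biological replicates, DESeq2 with apeglm shrinkage.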

Sequence	shrunken log2 fold change
RRIRARPPRLPRPRPRPLAAPRP	0.942
RRIRARPPRLPRPRPRPLAEPRP	0.976
RRIRARPPRLPRPRPRPLAIPRP	0.397
RRIRARPPRLPRPRPRPLAWPRP	0.721
RRIRARPPRLPRPRPRPLCFPRP	0.195
RRIRARPPRLPRPRPRPLCKPRP	0.326
RRIRARPPRLPRPRPRPLCTPRP	0.223
RRIRARPPRLPRPRPRPLDLPRP	0.227
RRIRARPPRLPRPRPRPLDQPRP	1.44
RRIRARPPRLPRPRPRPLERPRP	-0.0328
RRIRARPPRLPRPRPRPLFPPRP	0.148
RRIRARPPRLPRPRPRPLGIPRP	-0.12
RRIRARPPRLPRPRPRPLGNPRP	0.0331
RRIRARPPRLPRPRPRPLGQPRP	0.432
RRIRARPPRLPRPRPRPLGWPRP	0.951
RRIRARPPRLPRPRPRPLHHPRP	-0.0724
RRIRARPPRLPRPRPRPLHNPRP	0.00865
RRIRARPPRLPRPRPRPLLMPRP	0.384
RRIRARPPRLPRPRPRPLMGPRP	0.489
RRIRARPPRLPRPRPRPLNLPRP	0.0866
RRIRARPPRLPRPRPRPLPWPRP	0.51
RRIRARPPRLPRPRPRPLPYPRP	0.0356
RRIRARPPRLPRPRPRPLQQPRP	0.752
RRIRARPPRLPRPRPRPLREPRP	1.16
RRIRARPPRLPRPRPRPLRPPRP	1.08

Sequence	shrunken log2 fold change
RRIRARPPRLPRPRPRPLTCPRP	-0.248
RRIRARPPRLPRPRPRPLVVPRP	0.194
RRIRARPPRLPRPRPRPLWFPRP	0.145
RRIRARPPRLPRPRPRPLWIPRP	-0.0129
RRIRARPPRLPRPRPRPMERPRP	0.0157
RRIRARPPRLPRPRPRPMHFPRP	0.122
RRIRARPPRLPRPRPRPMHKPRP	0.221
RRIRARPPRLPRPRPRPMIDPRP	0.535
RRIRARPPRLPRPRPRPMKAPRP	0.0595
RRIRARPPRLPRPRPRPMKSPRP	0.186
RRIRARPPRLPRPRPRPMLVPRP	0.291
RRIRARPPRLPRPRPRPMMRPRP	1.22
RRIRARPPRLPRPRPRPMNNPRP	-0.186
RRIRARPPRLPRPRPRPMPAPRP	0.722
RRIRARPPRLPRPRPRPMPCPRP	0.535
RRIRARPPRLPRPRPRPMQRPRP	0.383
RRIRARPPRLPRPRPRPMQTPRP	0.114
RRIRARPPRLPRPRPRPMSSPRP	0.0476
RRIRARPPRLPRPRPRPMTCPRP	-0.29
RRIRARPPRLPRPRPRPMTSPRP	0.237
RRIRARPPRLPRPRPRPMTYPRP	-0.086
RRIRARPPRLPRPRPRPNAHPRP	0.437
RRIRARPPRLPRPRPRPNATPRP	1.97
RRIRARPPRLPRPRPRPNDRPRP	-0.0519
RRIRARPPRLPRPRPRPNEFPRP	-0.362

Sequence	shrunken log2 fold change
RRIRARPPRLPRPRPRPNEMPRP	-0.0653
RRIRARPPRLPRPRPRPNFDPRP	0.281
RRIRARPPRLPRPRPRPNFHPRP	0.0254
RRIRARPPRLPRPRPRPNFVPRP	-0.122
RRIRARPPRLPRPRPRPNGEPRP	0.189
RRIRARPPRLPRPRPRPNGFPRP	0.113
RRIRARPPRLPRPRPRPNGPPRP	0.149
RRIRARPPRLPRPRPRPNHTPRP	-0.605
RRIRARPPRLPRPRPRPNHWPRP	0.0522
RRIRARPPRLPRPRPRPNKTPRP	-0.105
RRIRARPPRLPRPRPRPNLMPRP	-0.0139
RRIRARPPRLPRPRPRPNLWPRP	0.467
RRIRARPPRLPRPRPRPNMHPRP	0.0638
RRIRARPPRLPRPRPRPNMNPRP	-0.212
RRIRARPPRLPRPRPRPNNKPRP	-0.29
RRIRARPPRLPRPRPRPNQEPRP	-0.000902
RRIRARPPRLPRPRPRPNQGPRP	0.392
RRIRARPPRLPRPRPRPNRCPRP	0.0646
RRIRARPPRLPRPRPRPNRMPRP	0.0574
RRIRARPPRLPRPRPRPNRQPRP	0.257
RRIRARPPRLPRPRPRPNSQPRP	0.0062
RRIRARPPRLPRPRPRPNTGPRP	-0.0394
RRIRARPPRLPRPRPRPNTNPRP	-0.0214
RRIRARPPRLPRPRPRPNVDPRP	0.0662
RRIRARPPRLPRPRPRPNWCPRP	0.206

Sequence	shrunken log2 fold change
RRIRARPPRLPRPRPRPPAEPRP	1.15
RRIRARPPRLPRPRPRPPATPRP	1.63
RRIRARPPRLPRPRPRPPAWPRP	0.621
RRIRARPPRLPRPRPRPPDRPRP	0.853
RRIRARPPRLPRPRPRPPFDPRP	0.922
RRIRARPPRLPRPRPRPPGHPRP	0.779
RRIRARPPRLPRPRPRPPGVPRP	0.158
RRIRARPPRLPRPRPRPPGYPRP	0.365
RRIRARPPRLPRPRPRPPHFPRP	1.41
RRIRARPPRLPRPRPRPPHQPRP	0.952
RRIRARPPRLPRPRPRPPMIPRP	-0.172
RRIRARPPRLPRPRPRPPNHPRP	0.305
RRIRARPPRLPRPRPRPPPHPRP	1.03
RRIRARPPRLPRPRPRPPPLPRP	1.84
RRIRARPPRLPRPRPRPPPTPRP	1.13
RRIRARPPRLPRPRPRPPPWPRP	1.03
RRIRARPPRLPRPRPRPPQHPRP	0.655
RRIRARPPRLPRPRPRPPTVPRP	0.468
RRIRARPPRLPRPRPRPPVAPRP	0.77
RRIRARPPRLPRPRPRPPVCPRP	0.276
RRIRARPPRLPRPRPRPPWDPRP	0.72
RRIRARPPRLPRPRPRPPWNPRP	0.427
RRIRARPPRLPRPRPRPPWSPRP	0.585
RRIRARPPRLPRPRPRPPYCPRP	0.276
RRIRARPPRLPRPRPRPQANPRP	0.304

Sequence	shrunken log2 fold change
RRIRARPPRLPRPRPRPQCEPRP	0.724
RRIRARPPRLPRPRPRPQCFPRP	0.1
RRIRARPPRLPRPRPRPQCYPRP	-0.0761
RRIRARPPRLPRPRPRPQDRPRP	-0.139
RRIRARPPRLPRPRPRPQEGPRP	-0.0912
RRIRARPPRLPRPRPRPQEKPRP	-0.0334
RRIRARPPRLPRPRPRPQENPRP	0.394
RRIRARPPRLPRPRPRPQETPRP	0.0762
RRIRARPPRLPRPRPRPQGHPRP	0.273
RRIRARPPRLPRPRPRPQGMPRP	0.233
RRIRARPPRLPRPRPRPQHPPRP	0.29
RRIRARPPRLPRPRPRPQIIPRP	0.0561
RRIRARPPRLPRPRPRPQISPRP	-0.051
RRIRARPPRLPRPRPRPQIWPRP	0.166
RRIRARPPRLPRPRPRPQKHPRP	0.0336
RRIRARPPRLPRPRPRPQKMPRP	-0.000461
RRIRARPPRLPRPRPRPQKWPRP	0.301
RRIRARPPRLPRPRPRPQNTPRP	-0.286
RRIRARPPRLPRPRPRPQPFPRP	-0.0268
RRIRARPPRLPRPRPRPQPMPRP	0.229
RRIRARPPRLPRPRPRPQRNPRP	-0.0146
RRIRARPPRLPRPRPRPQSQPRP	-0.0155
RRIRARPPRLPRPRPRPQVQPRP	0.0275
RRIRARPPRLPRPRPRPQWGPRP	0.315
RRIRARPPRLPRPRPRPQYEPRP	0.181

Sequence	shrunken log2 fold change
RRIRARPPRLPRPRPRPRAWPRP	0.699
RRIRARPPRLPRPRPRPRCLPRP	0.157
RRIRARPPRLPRPRPRPRCTPRP	0.392
RRIRARPPRLPRPRPRPRCYPRP	0.0779
RRIRARPPRLPRPRPRPRDCPRP	0.391
RRIRARPPRLPRPRPRPRFTPRP	0.267
RRIRARPPRLPRPRPRPRGFPRP	0.604
RRIRARPPRLPRPRPRPRGHPRP	0.644
RRIRARPPRLPRPRPRPRGQPRP	0.666
RRIRARPPRLPRPRPRPRHSPRP	-0.00589
RRIRARPPRLPRPRPRPRHYPRP	-0.158
RRIRARPPRLPRPRPRPRKHPRP	0.146
RRIRARPPRLPRPRPRPRKMPRP	0.521
RRIRARPPRLPRPRPRPRLAPRP	1.53
RRIRARPPRLPRPRPRPRLNPRP	0.316
RRIRARPPRLPRPRPRPRMGPRP	0.692
RRIRARPPRLPRPRPRPRNFPRP	-0.0153
RRIRARPPRLPRPRPRPRPDPRP	0.819
RRIRARPPRLPRPRPRPRQIPRP	0.313
RRIRARPPRLPRPRPRPRQLPRP	0.449
RRIRARPPRLPRPRPRPRRAPRP	0.831
RRIRARPPRLPRPRPRPRRVPRP	1.36
RRIRARPPRLPRPRPRPRSAPRP	0.681
RRIRARPPRLPRPRPRPRTMPRP	0.403
RRIRARPPRLPRPRPRPRTNPRP	0.329
